In patent US20050202440A1:

Target: androgen receptor ligand binding domain (AR LBD) bound with DHT (chimp construct; LBD sequence stated identical to human)
Assay: X-ray cocrystal structure; surface area buried from both molecules on binding

Chain of androgen receptor ligand binding domain (AR LBD) bound with DHT (chimp construct; LBD sequence stated identical to human) (P10275 whole entry, the tested form may be a part): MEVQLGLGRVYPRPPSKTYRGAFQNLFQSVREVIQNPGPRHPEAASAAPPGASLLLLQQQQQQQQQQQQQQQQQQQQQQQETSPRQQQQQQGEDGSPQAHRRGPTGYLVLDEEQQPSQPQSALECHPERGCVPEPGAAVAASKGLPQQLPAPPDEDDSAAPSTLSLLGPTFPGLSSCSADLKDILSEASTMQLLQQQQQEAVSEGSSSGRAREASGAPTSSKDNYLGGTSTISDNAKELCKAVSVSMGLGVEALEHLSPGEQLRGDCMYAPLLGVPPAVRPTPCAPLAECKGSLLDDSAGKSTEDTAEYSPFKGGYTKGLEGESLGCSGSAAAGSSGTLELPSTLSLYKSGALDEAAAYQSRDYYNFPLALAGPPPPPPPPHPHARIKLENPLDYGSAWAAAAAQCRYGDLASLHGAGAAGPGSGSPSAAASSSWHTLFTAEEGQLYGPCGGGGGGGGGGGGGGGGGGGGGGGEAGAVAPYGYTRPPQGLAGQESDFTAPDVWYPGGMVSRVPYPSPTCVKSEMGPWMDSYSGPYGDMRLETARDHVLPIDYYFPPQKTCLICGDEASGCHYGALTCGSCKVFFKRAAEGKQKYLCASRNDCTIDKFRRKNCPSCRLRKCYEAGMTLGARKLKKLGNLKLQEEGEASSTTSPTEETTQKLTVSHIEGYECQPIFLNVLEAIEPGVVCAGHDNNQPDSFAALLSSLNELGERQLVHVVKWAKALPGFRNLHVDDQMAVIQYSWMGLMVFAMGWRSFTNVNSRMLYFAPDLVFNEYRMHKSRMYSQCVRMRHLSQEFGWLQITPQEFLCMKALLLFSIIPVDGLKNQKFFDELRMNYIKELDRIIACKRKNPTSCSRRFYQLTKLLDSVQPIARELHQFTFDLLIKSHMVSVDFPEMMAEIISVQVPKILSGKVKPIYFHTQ

| buried surface area | Binder |
| --- | --- |
| 987 A^2 | SSRGLLWDLLTKDSR [coactivator-related peptide CRP-1] |
| 1020 A^2 | SSRFESLFAGEKESR [coactivator-related peptide CRP-3] |
| 930 Å^2 | SSKFAALWDPPKLSR [coactivator-related peptide CRP-4] |
| 1230 Å^2 | SSNTPRFKEYFMQSR [coactivator-related peptide CRP-6] |
| 920 Å^2 | SRFADFFRNEGLSGSR [coactivator-related peptide CRP-5] |
| 882 Å^2 | SRWAEVWDDNSKVSR [coactivator-related peptide CRP-7] |
| 963 Å^2 | SRWQALFDDGTDTSR [coactivator-related peptide CRP-2] |
